Data: article doi:10.1101/2021.06.21.449279

Columns and labels:
[1] = molecular target: CwlDΔ25-His6 (C. difficile); assay: pull-down
[2] = molecular target: CwlD R169D-His6 (C. difficile); assay: pull-down
[3] = molecular target: CwlD R169Q-His6 (C. difficile); assay: pull-down
[4] = molecular target: GerSΔ22 (untagged) (C. difficile); assay: crystal structure
[5] = molecular target: CwlD_(E199A)-His6 (C. difficile); assay: SEC
[6] = molecular target: CwlDΔ25-His6 (C. difficile); assay: SEC
[7] = molecular target: CwlD_(H49A)-His6 (C. difficile); assay: SEC
[8] = molecular target: CwlD_(E65A)-His6 (C. difficile); assay: SEC
[9] = molecular target: GerSΔ22-His6 (C. difficile); assay: SEC
[10] = molecular target: FLAG-tagged CwlD_(H49A) (C. difficile); assay: co-IP
[11] = molecular target: FLAG-tagged CwlD_(R169D) (C. difficile); assay: co-IP
[12] = molecular target: CwlD_(E199A)-FLAG (C. difficile); assay: co-IP

For “GerS D106R (untagged) (domain or fragment)”, the reduction of GerS co-purification against the wild-type complex [1] was 90%.

In the case of GerSΔ22 (untagged) (domain or fragment), the reduction of GerS co-purification against the wild-type complex [2] is reported as 90%, the reduction of GerS co-purification against the wild-type complex [3] is reported as 90% and the stoichiometry N [4] is reported as 2. For the same substance, the stoichiometry N [5] was 1, the stoichiometry N [6] was 1 and the stoichiometry N [7] was 1. For the same substance, the stoichiometry N [8] was 1.

“GerS D106A (untagged) (domain or fragment)” gave a reduction of GerS co-purification against the wild-type complex [1] of 90%.

For CwlDΔ25-His6 (domain or fragment), the stoichiometry N [6] was 2.

GerSΔ22-His6 (domain or fragment) was tested, and the stoichiometry N [9] was 2.

Work on “cleaved form of GerS (untagged, in sporulating C. difficile) (natural protein)” yielded a fold reduction of GerS pulled down against wild-type FLAG-tagged CwlD [10] of 5 fold, a fold reduction of GerS pulled down against wild-type FLAG-tagged CwlD [11] of 5 fold and a decrease of the interaction against the wild-type CwlD:GerS complex [12] of 40%.
